# In the nanobody polyreactivity screen of Harvey et al. (2022):
# Test: yeast display, Sf9 membrane polyspecificity reagent, FACS + sequencing; frameworks hold sequencing errors
# In short: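 In a synthetic yeast display library (Saccharomyces cerevisiae BJ5465), nanobody expression was induced with galactose for 36–48 hours. FACS gates were set low and high (top ~1%) using anti-HA fluorescence for expression and streptavidin fluorescence for binding of the Sf9 membrane reagent. Each polyreactivity label is drawn from the gate of origin.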
row,Sequence,polyreactivity (PSR sort gate)
1,QVQLVESGGGLVQAGGSLRLSCAASGRIFGYYAMGWYRQAPGKERELVAAITGSGGRTYYADSVKGRFTISRDNAKNTVYLQMNSLKPEDTAVYYCARQQYRWERVYGYGYCGQGTQVTVSS,high polyreactivity
2,QVQLVESGGGLVQAGGSLRLSCAASGRIFGYYAMGWYRQAPGKERELVAAITRNGGSTYYADSVKGRFTISRDNAKNTVYLQMNSLKPEDTAVYYCAATKGGGRGYWGQGTQLTVSS,high polyreactivity
3,QVQLVESGGGLVQAGGSLRLSCAASGRIFGYYAMGWYRQAPGKERELVAAITWSGGTYYADSVKGRFTISRDNAKNTVYLQMNSLKPEDTAVYYCAKSVRNGWQSRFGYWGQGTQVTVSS,high polyreactivity
4,QVQLVESGGGLVQAGGSLRLSCAASGRIFGYYAMGWYRQAPGKERELVADITESGTSTYYADSVKGRFTISRDNAKNTVYLHMNILKPEDTAVYYCAAGYWWRYALYGYWGQGTQVTVSS,low polyreactivity
5,QVQLVESGGGLVQAGGSLRLSCAASGRIFGYYAMGWYRQAPGKERELVAGINSAGSTNYADSVKGRFTISRDNAKNTVYLQMNSLKPEDTAVYYCAARIRLSLRTGYDYWGQGTQVTVSS,high polyreactivity
6,QVQLVESGGGLVQAGGSLRLSCAASGRIFGYYAMGWYRQAPGKERELVARISSSGGSTYYADSVKGRFTISRDNAKNTVYLQMNSLKPEDTAVYYCNTASNRYPGWRAEFDYWGQGTQVTVSS,low polyreactivity
7,QVQLVESGGGLVQAGGSLRLSCAASGRIFGYYAMGWYRQAPGKERELVATITFGGGSTYYADSVKGRFTISRDNAKNTVYLQMNSLKPEDTAVYFCAADSGYLGIYGDEYSWGQGTQVTVSS,low polyreactivity
8,QVQLVESGGGLVQAGGSLRLSCAASGRIFGYYGMGWYRQAPGKERELVAAITDDGDSTYYADSVKGRFTISRDNAKNTVYLQMNSLKPEDTAVYYCNALGYYVNKMDYWGQGTQVTVSS,low polyreactivity
9,QVQLVESGGGLVQAGGSLRLSCAASGRIFGYYTMGWYRQAPGKERELVAGITRRGGRTYYADSVKGRFTISRDNAKNTVYLQMNSLKPEDTAVYYCDVRSGVNFYYWGQGTQVTVSS,high polyreactivity
10,QVQLVESGGGLVQAGGSLRLSCAASGRIFGYYVMGWYRPAPGKERELVAAIRSSADSTYYADSVKGRFTISRDNAKNTVYLQMNSLKPEDTAVYDCAAQSPAYYTKSYWGQGTQVTVSS,low polyreactivity
11,QVQLVESGGGLVQAGGSLRLSCAASGRIFGYYVMGWYRPAPGKERELVAAISRSGGSTYYADSVKGRFTISRDNAKNTVYLQMNSLKPEDTAVYYCAKRVSTYGFSGYDYWGQGTQVTVSS,high polyreactivity
12,QVQLVESGGGLVQAGGSLRLSCAASGRIFHANAMGWYRQAPGKERELVAGISRNGGRTYYADSVKGRFTISRDNAKNTVYLQMNSLKPEDTAVYYCAKGHKFRFDYWGQGTQVTVSS,high polyreactivity
13,QVQLVESGGGLVQAGGSLRLSCAASGRIFHFYAMGWYRQAPGKERELVAAISWSGGSTYYADSVKGRFTISRDNAKNTVYLQMNSLKPEDTAVYYCSKVRGEVAHRKVQYDYWGQGTQVTVSS,low polyreactivity
14,QVQLVESGGGLVQAGGSLRLSCAASGRIFHFYVMGWYRQAPGKERELVASITRGGNTNYADSVKGRFTISRDNAKNTVYLQMNSLKPEDTAVYYCNGEGYYTRDDSWGQGTQVTVSS,low polyreactivity
15,QVQLVESGGGLVQAGGSLRLSCAASGRIFHGNAMGWYRQAPGKERELVAAITSGGRTFYADSVKGRFTISRDNAKNTVYLQMNSLKPEDTAVYYCNAPSIAGYAEYNSHDYWGQGTQVTVSS,high polyreactivity
16,QVQLVESGGGLVQAGGSLRLSCAASGRIFHPNAMGWYRRATGKERELVAAISRSGSTYYADSVKGRFTISRDNAKNTVYLQMNSLKPEDTAVYYCATQTWSGYSGTPRIYDYWGQGTQVTVSS,high polyreactivity
17,QVQLVESGGGLVQAGGSLRLSCAASGRIFHQYGMGGYSQAPGKERELVAAIRSGDSTNYADSVKGRFTISRDNAKNTVYVQMNSLKPEDTAVYYCARDRPGDYAGYDYWGQGTQVTVSS,low polyreactivity
